Reference: publication PMC11574312, “The role of ATP-binding Cassette subfamily B member 6 in the inner ear” (Nature Communications, 2024)

Target: the molecule itself
Assay: cryo-EM structure; ABCB6 WT purified in DDM/CHS, about 3.6 mg/mL on grids; apo, inward-facing; final refinement with C2 symmetry applied

B1: human ATP-binding cassette sub-family B member 6 (ABCB6) WT-Flag (natural protein)
chain: MVTVGNYCEAEGPVGPAWMQDGLSPCFFFTLVPSTRMALGTLALVLALPCRRRERPAGADSLSWGAGPRISPYVLQLLLATLQAALPLAGLAGRVGTARGAPLPSYLLLASVLESLAGACGLWLLVVERSQARQRLAMGIWIKFRHSPGLLLLWTVAFAAENLALVSWNSPQWWWARADLGQQVQFSLWVLRYVVSGGLFVLGLWAPGLRPQSYTLQVHEEDQDVERSQVRSAAQQSTWRDFGRKLRLLSGYLWPRGSPALQLVVLICLGLMGLERALNVLVPIFYRNIVNLLTEKAPWNSLAWTVTSYVFLKFLQGGGTGSTGFVSNLRTFLWIRVQQFTSRRVELLIFSHLHELSLRWHLGRRTGEVLRIADRGTSSVTGLLSYLVFNVIPTLADIIIGIIYFSMFFNAWFGLIVFLCMSLYLTLTIVVTEWRTKFRRAMNTQENATRARAVDSLLNFETVKYYNAESYEVERYREAIIKYQGLEWKSSASLVLLNQTQNLVIGLGLLAGSLLCAYFVTEQKLQVGDYVLFGTYIIQLYMPLNWFGTYYRMIQTNFIDMENMFDLLKEETEVKDLPGAGPLRFQKGRIEFENVHFSYADGRETLQDVSFTVMPGQTLALVGPSGAGKSTILRLLFRFYDISSGCIRIDGQDISQVTQASLRSHIGVVPQDTVLFNDTIADNIRYGRVTAGNDEVEAAAQAAGIHDAIMAFPEGYRTQVGERGLKLSGGEKQRVAIARTILKAPGIILLDEATSALDTSNERAIQASLAKVCANRTTIVVAHRLSTVVNADQILVIKDGCIVERGRHEALLSRGGVYADMWQLQQGQEETSEDTKPQTMER
notes: ABCB6, human, UniProt Q9NP58; the preparation holds the N-terminal TMD0, but the final model has no density for it; The protein was eluted from Flag resin with 3X Flag peptide and no tag cleavage is described
binding result: binds
